Measurements as given in US20190092852A1 (Genentech, published 2019).

T1: human IL-33 (R&D Systems, #3625-IL-010/CF) (human, UniProt O95760 112-270)
T1 sequence (looked up): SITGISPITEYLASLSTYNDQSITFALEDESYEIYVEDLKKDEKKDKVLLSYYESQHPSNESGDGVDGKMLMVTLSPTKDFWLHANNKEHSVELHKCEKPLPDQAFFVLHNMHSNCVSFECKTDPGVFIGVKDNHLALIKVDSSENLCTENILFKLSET

T2: cynomolgus monkey N-terminal 6-His-tagged and C-terminal Avi-tagged IL-33 (S112-T270) (cynomolgus monkey)
T2 chain: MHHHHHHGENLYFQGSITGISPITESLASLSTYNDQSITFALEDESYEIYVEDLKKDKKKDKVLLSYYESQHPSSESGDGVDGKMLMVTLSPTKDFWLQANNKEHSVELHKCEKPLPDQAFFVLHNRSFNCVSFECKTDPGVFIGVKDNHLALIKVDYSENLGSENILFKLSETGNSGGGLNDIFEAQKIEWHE

T3: cyno IL-33 N-His (cynomolgus monkey)
T3 chain: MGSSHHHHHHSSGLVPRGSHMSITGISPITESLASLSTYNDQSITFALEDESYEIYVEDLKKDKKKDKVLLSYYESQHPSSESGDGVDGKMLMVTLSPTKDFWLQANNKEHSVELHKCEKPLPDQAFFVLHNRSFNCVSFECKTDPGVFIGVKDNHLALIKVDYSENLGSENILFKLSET

T4: human IL-33 N-His (human)
T4 chain: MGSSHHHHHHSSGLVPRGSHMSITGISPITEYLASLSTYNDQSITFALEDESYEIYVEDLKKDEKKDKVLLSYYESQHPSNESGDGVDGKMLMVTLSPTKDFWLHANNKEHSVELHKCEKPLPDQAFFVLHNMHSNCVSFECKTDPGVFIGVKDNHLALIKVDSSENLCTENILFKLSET

T5: human IL-33 (construct not stated) (human, UniProt O95760 112-270)
T5 sequence (looked up): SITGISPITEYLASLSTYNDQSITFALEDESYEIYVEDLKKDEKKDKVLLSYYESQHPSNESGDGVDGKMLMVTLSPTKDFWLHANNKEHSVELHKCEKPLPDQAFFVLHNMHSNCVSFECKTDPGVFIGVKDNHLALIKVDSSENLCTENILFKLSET


What was measured:
[1] = biological target: T1, human IL-33 (R&D Systems, …); assay: cell-based or functional assay
[2] = biological target: T2, cynomolgus monkey N-terminal …; assay: cell-based or functional assay
[3] = biological target: T1, human IL-33 (R&D Systems, …); assay: SPR Biacore T200, 25 C
Method in brief: (§1)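 Antibodies captured via anti-Fc on CM5 chip; IL-33 injected at 3.7–100 nM (three-fold series), 4 min association, 10 min dissociation, 30 μl/min, ADA pH 7.4 buffer with 0.15 M NaCl, EDTA, Tween-20, at 25 °C or 37 °C. KD = koff/kon from 1:1 Langmuir fit; t1/2 = ln(2)/(60*koff).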

cyno IL-33 N-His = biological target: T3, cyno IL-33 N-His; assay: SPR Biacore T200, 25 C
Method in brief: as §1

human IL-33 N-His = biological target: T4, human IL-33 N-His; assay: cell-based or functional assay
[4] = biological target: T5, human IL-33 (construct not stated); assay: cell-based or functional assay
[5] = biological target: T1, human IL-33 (R&D Systems, …); assay: cell-based or functional assay; remark: listed apart in the source
[6] = biological target: T2, cynomolgus monkey N-terminal …; assay: cell-based or functional assay
[7] = biological target: T1, human IL-33 (R&D Systems, …); assay: cell-based or functional assay; remark: listed apart in the source
[8] = biological target: T1, human IL-33 (R&D Systems, …); assay: cell-based or functional assay; remark: listed apart in the source

Binder	HEK-BLUE SEAP reporter IC50 [1] [nM]	IFN-γ secretion from primary NK cells, IC50 [1] [nM]	phospho-p38 in primary basophils, IC50 [1] [nM]	HEK-BLUE SEAP reporter IC50 [2] [nM]	Kd [3] [nM]	koff [3] [s⁻¹]	kon [3] [M⁻¹ s⁻¹]	t1/2 [3] [min]	Kd (cyno IL-33 N-His) [nM]	koff (cyno IL-33 N-His) [s⁻¹]	kon (cyno IL-33 N-His) [M⁻¹ s⁻¹]	t1/2 (cyno IL-33 N-His) [min]	IC50; SEAP reporter, HEK-BLUE IL-33 cells, 15 pM human IL-33 N-His, 20 h (human IL-33 N-His) [pM]	IC50 (read off the curve); phospho-p38 MFI in CD123+ basophils (average from 2 donors), 10 ng/ml IL-33 [4] [nM]	IC50; SEAP reporter (OD 620), HEK-BLUE IL-33/IL-1beta cells, 10 pM hIL-33 [5] [M]	IC50; SEAP reporter (OD 620), HEK-BLUE IL-33/IL-1beta cells, 5 pM cyno IL-33 (5pM cIL-33-Nhis) [6] [M]	IC50, IL-33-induced phospho-p38 in primary human basophils, 500 pM hIL-33 [7] [M]	IC50 (read off the curve) [8] [nM]
10C12.38.H6.87Y.58I IgG4 (antibody, V domains shown, also called anti-IL33 10C12.38.H6.87Y.58I IgG4) VH: EVQLVESGGGLVQPGGSLRLSCAASGFTFSSFSMSWVRQAPGKGLEWVATISGGKTFTDYVDSVKGRFTISRDDSKNTLYLQMNSLRAEDTAVYYCTRANYGNWFFEVWGQGTLVTVSS VL: EIVLTQSPATLSLSPGERATLSCRASESVAKYGLSLLNWFQQKPGQPPRLLIFAASNRGSGIPARFSGSGSGTDFTLTISSLEPEDFAVYYCQQSKEVPFTFGQGTKVEIKR	0.0024	0.03	0.00015	4.2	0.133	0.000613	4.6e+06	19	0.265	0.000278	1.05e+06	42	12	~0.3	–	–	–	–
H4H9659P (antibody, IgG4, V domains shown, also called RG7) VH: QVQLVQSGAEVKKPGASVKVSCKASGYTFNSYGISWVRQAPGQGLEWMGWISSHNGNSHYVQKFQGRVSMTTDTSTSTAYMELRSLRSDDTAVYYCARHSYTTSWYGGFDYWGQGTLVTVSS VL: DIQMTQSPSSVSASVGDRVTITCRASQGFSSWLAWYQQKPGKAPQLLIYAASSLQSGVPSRFSGSGSGSDFTLTISSLQPEDFATYYCQQANSFPLTFGGGTKVEIK	–	–	–	–	1.09	0.000499	456000	23	2.61	0.000479	183000	24	–	–	9.2e-11	6.6e-08	6.7e-13	~0.0007
